Laboratory results: patent US5534410

Legend:
[1] = molecular target: Sp1, over-expressed and purified from HeLa cells infected with a vaccinia virus expression vector (Homo sapiens (Human)) (UniProt P08047); assay: 35S-TAF110 (reticulocyte lysate) on DNA-bound Sp1 resin, SDS-PAGE, PhosphorImager
[2] = molecular target: GAL4-Sp1B domain fusion (Homo sapiens (Human)) (UniProt P08047)

Substance	fold greater binding to the Sp1-containing resin than to the resin without Sp1 [1] [fold]	transcription of a reporter gene dependent on GAL4 binding sites (CAT), superactivation assay in Drosophila Schneider cells [2] [fold]
Drosophila TAF110 (dTAFII110), full-length	60	
Sp1(N539), the gln-rich A and B domains of Sp1 (from UniProt P08047)		50
